Measured values: patent US20250241939A1, “NUCLEIC ACID-BASED DELIVERY SYSTEMS AND USES THEREOF” (Kodikaz Therapeutic Solutions, Inc., priority 2022, published 2025)

Assays:
[1] = tested on: MM cell lines (MM1s, OPM1, RPMI); assay: Cell viability: sensitivity to bortezomib after culture with plasma and ctDNA; format: cell-based, human
Description: BR: Bortezomib resistant, BS: Bortezomib sensitive. Error bars indicate the standard deviation of triplicate experiments.
(§1) Cell viability: Cell viability assays were performed in 96 well, black, clear-bottom microplates. For MM cell line studies, 3×10^4 cells were cultured for 24 hours with media containing 10% human plasma of a bortezomib-resistant or-sensitive patient or a control non-cancer patient. Cells were then cultured for 24 hours with titrating concentrations of bortezomib (doses: 0, 5, 10, 15, 50 nM; Sigma). For PC cell lines viability studies, 1×10^4 cells were incubated for 24 hours with media containing plasma of a gemcitabine-resistant patient or non-cancer patient. Subsequently, titrating concentrations of gemcitabine (doses: 0, 10, 25, 50, 100, 200 μM; Sigma-Aldrich, MO) were added to the culture media and cells were then incubated for 96 hours. CellTiter-Blue Cell Viability Assay was used to evaluate cell viability according to the manufacturer's instructions (Promega). Cell viability was measured by a fluorescent protocol in an microplate reader. Experiments were performed in triplicate of 3 independent studies.

[2] = tested on: ctDNA chromatid integration in MM1s, MIA and HCT116 cell lines; assay: Effect of reverse transcriptase or integrase inhibitors on ctDNA chromatid integration; format: cell-based, human; conditions: HCT116 treated prior to adding ctDNA, compared to no treatment control
Description: To evaluate functionally the role of retrotransposons in horizontal gene transfer of ctDNA, experiments were conducted to test the impact of inhibiting reverse transcriptases or integrases on ctDNA integration. Multiple myeloma (MM1s), pancreatic cancer (MIA), and colon cancer (HCT116) cell lines were treated with the reverse-transcriptase inhibitors zidovudine or didanosine, and with the integrase inhibitor raltegravir prior to adding the ctDNA to culture media.

[3] = tested on: pancreatic cancer cell lines (MIA Paca-2 [MIA] and PANC1); assay: Cell viability: sensitivity to gemcitabine after culture with patient plasma; format: cell-based, human
Description: For the corresponding DNase I-treated samples, plasma was treated with DNase I for 10 minutes. GR: Gemcitabine resistant.
Gemcitabine (GEM)-sensitive pancreatic cancer cell lines (MIA Paca-2 [MIA] and PANC1) were cultured for 24 h with DNase-treated or non-treated plasma from (GEM)-resistant (GR) patients or control plasma.
as §1

[4] = tested on: HFF (fibroblast), DU145 (prostate cancer), and MCF10A (breast); assay: Uptake of MM2 fragments in different cell types; format: cell-based
From the text: (§2) FIG. 20 provides fluorescence microcopy images evaluating uptake of fluorescently labelled synthetic DNA derived from a multiple myeloma ctDNA (MM2 (1-290), MM2 (89-290), MM2 (177-290), and MM2 (1-201), and MM2 (1-113)) by multiple myeloma/B cell lines (MM1S and RPMI) and cell lines of other cell types (HFF—fibroblast, DU145—prostate cancer, MCF10A breast).
(§3) A follow-up experiment evaluated uptake of the fragments in different cell types, with counterstaining to identify nuclei (DAPI) and cytoplasm (Texas red-phalloidin).

[5] = tested on: MM/B cell lines (MM1S and RPMI); assay: Uptake of MM2 fragments in different cell types; format: cell-based; conditions: DAPI and Texas red-phalloidin counterstain
From the text: as §2, §3

[6] = tested on: multiple myeloma cell line; assay: Uptake of fluorescent MM2 fragments, fluorescent microscopy; format: cell-based; conditions: Fluorescein 12 dCTP labelled PCR products
Description: FIG. 19 provides fluorescence microcopy images showing uptake of fluorescently labelled synthetic DNA derived from a multiple myeloma ctDNA (MM2 (1-290), MM2 (89-290), MM2 (177-290), and MM2 (1-201), and MM2 (1-113)), or a control sequence.
Fluorescein 12 dCTP from Perkin Elmer was used to label the PCR products, which were purified after the reaction.
In an initial study, fragments were generated as follows:
The fluorescent DNA sequences were incubated with multiple a myeloma cell line and uptake was evaluated by fluorescent microscopy.
The study was repeated with 5′FAM-labelled primers, with similar results.

[7] = tested on: MM1s (multiple myeloma) cell genome; assay: ctDNA coculture with MM1s cells, whole genome sequencing: genomic insertion sites, transposons at insertion points and SNVs (multiple myeloma); format: cell-based, human; conditions: TABLE 7, multiple myeloma co-culture
Description: The integration of ctDNAs into the host cell genome was evaluated. ctDNA was extracted from patient plasma, cultured for 24 hours with cells of a matching cancer cell type or non-matching cancer cell type, and whole genome sequencing was performed. The cell lines used were MM1s (multiple myeloma, MM) and MIA (pancreatic cancer, PC).
Single nucleotide variants (SNVs) unique to the ctDNA that were found in the host cell genome under matching coculture conditions were identified.
The sequence data was used to reconstruct genomic contigs for each experimental condition by de novo assembly. […] Coculture contigs carrying a ctDNA insertion were identified using NucDiff analysis. BLAST alignment analysis further validated the gain of ctDNA fragments in coculture conditions and identified the transition points of ctDNA insertion (FIGS. 3A-3C). […] The remaining 20% inserted into a chromosomal location distinct from their site of origin.
Experiments were designed to identify the presence of transposons in ctDNA fragments. To map ctDNA genomic junctions more precisely, a PACBIO probe was ligated to multiple myeloma and pancreatic cancer ctDNA samples to label their 5′ and 3′ ends. Whole-genome sequencing of DNA from cells with ctDNA genomic integration was done using the Illumina platform. De novo assembly was performed on the sequencing output. ctDNA contigs containing PACBIO adaptor were then matched to those contigs containing inserted ctDNA sequences identified in the coculture experiments. Transposable element on ctDNA sequences at the insertion points (<100 nucleotides from transition point between cell and ctDNA) were detected and classified using RepeatMaster.
A search was conducted for transposons that preferentially target cells of matching tumor types. The lists of transposons identified at the ctDNA insertion point in matching and mismatched coculture conditions were compared (e.g., MM ctDNA with MM cells or PC cells). Transposons were selected that were uniquely or preferentially inserted in the matching conditions.
In multiple myeloma, AluSp, MER11, MER11C, AluJb, and L2a, among other subfamilies of retrotransposons were identified at the MM ctDNA insertion sites (FIG. 5B and TABLE 7).
Whole-genome sequencing and Whole exon sequencing: ctDNA was extracted from 10 MM and 10 PC patients. DNA from CD138 (+) cells and from cell lines used in in vitro experiments (MM1s and MIA) was extracted using Blood & Cell Culture DNA Mini Kit (Quiagen, MD). DNA from […] paraffin embedded pancreatic tumors was obtained using QIAamp DNA FFPE Tissue Kit Print (Qiagen, MD).
After extraction, ctDNA was ligated to the PACBIO adaptor ([…]) using the ABM DNA Library Prep Kit for Illumina Sequencing (Applied Biological Materials Inc. Canada). PACBio-labeled ctDNA and regular ctDNA were subjected to standard methods for library preparation and sequencing using Illumina and Agilent protocols, respectively. Applied Biological Materials Inc. prepared the libraries and performed whole-exon and -genome sequencing. The average target coverage was 50×.
Identification of transposable elements and its nucleotide variants: To determine the locations of transposable-like regions in contigs, sequences were analyzed and transposable elements (TEs) were identified and classified using RepeatMasker version 4.1.0 and the Dfam database (release 3.1) of repetitive DNA families was used as a reference for identifying repeats in ctDNA contig sequences that were part of qualifying structural events. For each repeat sequence identified by RepeatMasker, the overall frequency of the specific repeat (e.g., for AluSp or L1) and their parent class (e.g., SINE) was computed.
Once the TE elements were identified, hit repeats/TE sequences, unique contigs for all samples, and insertion sequence were aligned with MAFFT software version. […]

Q: What does the source list for CC(C)C[C@H](NC(=O)[C@H](Cc1ccccc1)NC(=O)c1cnccn1)B(O)O [bortezomib]?
A: sensitivity to bortezomib ([1]; MM1s and OPM1, ctDNA of BR patient added to non-cancer patient plasma): decreased the sensitivity; sensitivity to bortezomib ([1]; RPMI cells, ctDNA of BS patient added to control plasma): increased sensitivity; resistance to bortezomib ([1]; ctDNA of a BR patient added to plasma of a BR patient): further increased

Q: With O=c1[nH]cnc2c1ncn2[C@H]1CC[C@@H](CO)O1 [didanosine] as the molecule, how does the ctDNA chromatid integration [2] read?
A: Its ctDNA chromatid integration is “significantly reduced”.

Q: What does the source list for Nc1ccn([C@@H]2O[C@H](CO)[C@@H](O)C2(F)F)c(=O)n1 [gemcitabine]?
A: response to gemcitabine ([3]; cells cultured 24 h with non-DNase-treated GR patient plasma, vs control serum): became resistant; response to gemcitabine ([3]; cells cultured with DNase-treated GR plasma): restored the inherent sensitivity; response to gemcitabine ([3]; control serum treated with DNase): increased resistance

Q: Which ctDNA chromatid integration [2] does the source give for Cc1cn([C@H]2C[C@H](N=[N+]=[N-])[C@@H](CO)O2)c(=O)[nH]c1=O [zidovudine] here?
A: Its ctDNA chromatid integration is “significantly reduced”.

Q: How did the ctDNA chromatid integration [2] turn out when Cc1nnc(C(=O)NC(C)(C)c2nc(C(=O)NCc3ccc(F)cc3)c(O)c(=O)n2C)o1 [raltegravir] was run?
A: Its ctDNA chromatid integration is “significantly reduced”.

B1: MM2 (177-290): fluorescently labelled fragment of MM2 (1-290) (nucleic acid, listed as Homo sapiens)
DNA: GGGATTATAAGCACCCACCACCACGCCCAGCTAATTTTGTATTTTTTAGAAGAGATGGAGTTTCTCCAGTTGGCCAGGATGGTCTGTATATCCTGACCTCATGATCTGCCCACC
modifications: DNA, all phosphodiester, methylation of C not given here; fluorescein label via fluorescein-12-dCTP or 5' FAM primer
Q: Which uptake [4] does the source give for B1 here?
A: The uptake was “not”.

Q: And the uptake [5]?
A: The uptake was “observed”.

Q: And the uptake [6]?
A: Its uptake is “observed”.

B2: MM2 (1-201): fluorescently labelled fragment of MM2 (1-290) (nucleic acid, listed as Homo sapiens)
DNA: ACCCGGCCTTGGACACGCCATTTTCAACTCCGTGGTGCGTTTTTTTTTTTTTTTTTTTTTTTTTGTAATGGAGTTTCGCTCTTGTTGCCCAGGATGGAGTGCAAGGGATCTTGGCTCACCACAGCCTCCGCCTCTTGGGTTCAAGTGATTCTTCTGCCTCAGCCTCCCAAGTAGCTGGGATTATAAGCACCCACCACCACG
modifications: fluorescent label
Q: Which results are given for B2?
A: uptake [4]: not; uptake [5]: observed; uptake [6]: observed

B3: MM2 (1-113): fluorescently labelled fragment of MM2 (1-290) (nucleic acid, listed as Homo sapiens)
DNA: ACCCGGCCTTGGACACGCCATTTTCAACTCCGTGGTGCGTTTTTTTTTTTTTTTTTTTTTTTTTGTAATGGAGTTTCGCTCTTGTTGCCCAGGATGGAGTGCAAGGGATCTTG
modifications: DNA, all phosphodiester, methylation of C not given here; fluorescein label via fluorescein-12-dCTP or 5' FAM primer
Q: What does the source list for B3?
A: uptake [5]: not; uptake [6]: not

B4: THE1C (nucleic acid, listed as Homo sapiens)
DNA: TGATATGGTTTGGCTGTGTCCCCACCTAAATCTCATCTTGAATTGTAGTTCCCATAATCCCCATGTGTCATGGGAGGGACCCAGTGGGAGGTAATTTAATCCTGGGGGCAGTTACCCTCCTGCTATGTGTGTGTGTGTGTGTGTGTTCTCACGAGATCTGATGGTTTTATAAGGGGCTTTTCCCCCTTCGCTCGGCACTTCTCCTTCCTGCCGCCATGTGAAGAAGGACGTGTTTGCTTCCCCTTCCGCCATGATTGTAAGTTTCCTGAGGCCTCCCCAGCCATGCNGAACTGTGAGTCAATTAAACCTCTTTCCTTTATAAATTACCCAGTCTCGGGTGTGTCTTTATTAGCAGCGTGAGAACGGACTAATACA
modifications: misc_difference 287 a, c, t, g, unknown or other
Q: Which results are given for B4?
A: blast orientation ([7]; BLAST alignment orientation): Plus/Minus; blast chr ([7]; chromosome with the longest result for BLAST analysis of the full contig): chr14; Transposon orientation ([7]; compared with the human reference genome): direct; Distance from insertion ([7]; distance between insertion and the transposon (0 if they overlap)): 0; Location relative to insertion ([7]; location of the transposon relative to the insertion on the contig): intersect
